Assay results taken from patent US20240117030A1 (Pfizer, published 2024).

Biological target: T1, human IL-12 (p35 + p40) (human, UniProt P29459 23-219; P29460 23-328)
T1 sequence (looked up) 1: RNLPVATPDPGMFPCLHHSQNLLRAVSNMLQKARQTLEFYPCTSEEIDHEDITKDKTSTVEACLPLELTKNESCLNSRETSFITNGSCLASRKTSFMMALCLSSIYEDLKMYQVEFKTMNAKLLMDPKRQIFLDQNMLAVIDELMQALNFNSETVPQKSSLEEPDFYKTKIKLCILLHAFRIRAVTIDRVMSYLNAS
T1 sequence (looked up) 2: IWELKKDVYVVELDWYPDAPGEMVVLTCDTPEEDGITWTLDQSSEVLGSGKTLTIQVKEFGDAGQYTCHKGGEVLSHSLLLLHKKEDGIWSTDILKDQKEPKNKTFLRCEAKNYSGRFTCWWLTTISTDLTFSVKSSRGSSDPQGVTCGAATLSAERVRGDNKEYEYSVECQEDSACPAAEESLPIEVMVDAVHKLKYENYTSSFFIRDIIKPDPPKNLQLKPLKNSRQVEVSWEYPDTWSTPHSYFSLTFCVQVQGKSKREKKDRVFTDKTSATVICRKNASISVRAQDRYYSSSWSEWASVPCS
Test: cell-based or functional assay

anti-IL12 bioassay IC50: 0.286 nM
B1: p40-0003 (antibody, human IgG1, kappa, V domains shown)
VH: EVQLVQSGAEVKKPGESLKISCKGSGYSFTTYWLGWVRQMPGKGLDWIGIMSPVDSDIRYSPSFQGQVTMSVDKSITTAYLQWNSLKASDTAMYYCARRRPGQGYFDFWGQGTLVTVSS
VL: DIQMTQSPSSLSASVGDRVTITCRASQGISSWLAWYQQKPEKAPKSLIYAASSLQSGVPSRFSGSGSGTDFTLTISSLQPEDFATYYCQQYNIYPYTFGQGTKLEIKR
